We go through four molecules from publication PMC5338832 (PLoS Pathogens, 2017).

The target in test [1] is T1, T117v2 epitope-scaffold (synthetic construct (designed scaffold …)).
T1 construct: also called T117v2 scaffold; scaffolded MPER construct; source: expressed and purified as previously described [35]
T1 chain: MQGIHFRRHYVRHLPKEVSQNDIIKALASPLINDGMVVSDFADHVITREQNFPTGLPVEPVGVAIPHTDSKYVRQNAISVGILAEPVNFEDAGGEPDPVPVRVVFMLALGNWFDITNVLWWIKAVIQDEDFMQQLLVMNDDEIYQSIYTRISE
In words: SPR; ProteOn XPR36, GLC chip with amine-coupled capture antibody (Human Antibody Capture Kit) for ligand capture; 1x HBS-EP+ pH 7.4 with 1 mg/ml BSA; Langmuir model; Table 1 heads the IgGs as 'Analyte'. As to conditions: both partners purified.

For test [2], the target named is T1, T117v2 epitope-scaffold. In words: SPR. As to conditions: both partners purified.

Residue numbers refer to the chain shown, from its start.

B1: 10E8 IgG mutant 3 (antibody, V domains shown)
VH: EVQLVESGGGLVKPGGSLRLSCSASGFDFDNAWMTWVRQPPGKGLEWVGRITGPGEGWSVDYAAPVEGRFTISRLNSINFLYLEMNNLRMEDSGLYFCARTGKYYDFWSGYPPGEEYFQDWGRGTLVTVSS
VL: SYELTQETGVSVALGDTVTITCEGDSLESHYASWYQKKPGQAPILLFYGDDNRPSGVPDRFSGDADGNEASLTIDGAQAEDDAEYYCSSRDKSGSRLSVFGGGTKLTVL
notes: IgG; also called 10E8 mut 3; copies: 2 + 2
On to B1, for which, in the test with T117v2 epitope-scaffold [1], binding was characterised by a dissociation constant (Kd) of 0.379 nM, the koff worked out at 0.000211 s⁻¹ and the kon is 559000 M⁻¹ s⁻¹.

B2: 10E8 IgG mutant 2 (antibody, V domains shown)
VH: B1 VH
VL: B1 VL with D50K, D51N, D64S, D66S, D75S
notes: IgG; also called 10E8 mut 2; copies: 2 + 2
Turning to B2, in the test with T117v2 epitope-scaffold [2], the Kd turned out to be 0.0164 nM, the off-rate constant (koff) came to 4.6e-05 s⁻¹ and the kon came out at 2.8e+06 M⁻¹ s⁻¹.

B3: 10E8 IgG mutant 1 (antibody, V domains shown)
VH: B1 VH
VL: B1 VL with D16Q, E23Q, E28R, D50K, D51N, D64S, D66S, E69T, D75S
notes: also called 10E8 mut 1; copies: 2 + 2
Consider B3, for which, in the test with T117v2 epitope-scaffold [1], binding was characterised by a dissociation constant (Kd) of 0.0112 nM, the koff was determined as 4e-05 s⁻¹ and the kon was determined as 3.57e+06 M⁻¹ s⁻¹.

B4: 10E8 IgG mutant 5 (antibody, V domains shown)
VH: B1 VH
VL: B1 VL with D16R, E23R, E28A, Y31A, D50K, D51N, D64S, D66S, E69R, D75S
notes: IgG; also called 10E8 mut 5; copies: 2 + 2
In the test with T117v2 epitope-scaffold [1], B4 came in with a Kd of 0.123 nM, an off-rate constant (koff) of 0.00016 s⁻¹ and a kon of 1.3e+06 M⁻¹ s⁻¹.
